Assay results published in paper PMC12215075, “Cryo-EM structures of the E. coli Ton and Tol motor complexes” (Nature Communications, 2025).

B1: E. coli TolQ (natural protein, UniProt P0ABU9 1-230, looked up)
chain: MTDMNILDLFLKASLLVKLIMLILIGFSIASWAIIIQRTRILNAAAREAEAFEDKFWSGIELSRLYQESQGKRDNLTGSEQIFYSGFKEFVRLHRANSHAPEAVVEGASRAMRISMNRELENLETHIPFLGTVGSISPYIGLFGTVWGIMHAFIALGAVKQATLQMVAPGIAEALIATAIGLFAAIPAVMAYNRLNQRVNKLELNYDNFMEEFTAILHRQAFTVSESNKG
notes: TolQ, E. coli; residues 2-225 built in the structure; also called EcTolQ; TolQA
B2: E. coli ExbD with C-terminal TEV site and 10his-tag (natural protein)
chain: MAMHLNENLDDNGEMHDINVTPFIDVMLVLLIIFMVAAPLATVDVKVNLPASTSTPQPRPEKPVYLSVKADNSMFIGNDPVTDETMITALNALTEGKKDTTIFFRADKTVDYETLMKVMDTLHQAGYLKIGLVGEETAKAK
notes: ExbD, E. coli; model built from Asp11 through the transmembrane helix (21-42), periplasmic domain not visible; No TEV digestion is described in the purification of TonB-ExbBD, so the tag was probably still on the chain; also called EcExbD; ExbDY
B3: E. coli ExbB (natural protein)
chain: MGNNLMQTDLSVWGMYQHADIVVKCVMIGLILASVVTWAIFFSKSVEFFNQKRRLKREQQLLAEARSLNQANDIAADFGSKSLSLHLLNEAQNELELSEGSDDNEGIKERTSFRLERRVAAVGRQMGRGNGYLATIGAISPFVGLFGTVWGIMNSFIGIAQTQTTNLAVVAPGIAEALLATAIGLVAAIPAVVIYNVFARQIGGFKAMLGDVAAQVLLLQSRDLDLEASAAAHPVRVAQKLRAG
notes: ExbB, E. coli; also called EcExbB; ExbBA
B4: E. coli TonB with C-terminal TEV site and streptag-II (natural protein)
chain: MTLDLPRRFPWPTLLSVCIHGAVVAGLLYTSVHQVIELPAPAQPISVTMVTPADLEPPQAVQPPPEPVVEPEPEPEPIPEPPKEAPVVIEKPKPKPKPKPKPVKKVQEQPKRDVKPVESRPASPFENTAPARLTSSTATAATSKPVTSVASGPRALSRNQPQYPARAQALRIEGQVKVKFDVTPDGRVDNVQILSAKPANMFEREVKNAMRRWRYEPGKPGSGIVVNILFKINGTTEIQ
notes: TonB, E. coli; only the transmembrane helix (residues 10 to 32) was built, the periplasmic domain is not visible; also called EcTonB; TonBF

How the values were obtained:
[1] = target: the molecule itself; assay: cryo-EM structure; TEV-digested TolATEVQR complex, co-expressed and co-purified, in LMNG (Hepes/NaOH 30 mM pH7.5 NaCl 150 mM EDTA 1 mM LMNG 0.002%), second SEC peak; 300 keV; two 3D classes (TolATEVQR-I 2.94 A, TolATEVQR-II 3.18 A)
[2] = target: the molecule itself; assay: cryo-EM structure; TonB-ExbBD complex, co-expressed and co-purified, in amphipol PMAL-C12 (Tris 30 mM pH8.0 NaCl 170 mM EDTA 1 mM); 300 keV; consensus map 2.8 A and two further classes at 3.2 A
[3] = target: B3; assay: as above; details: both partners purified

Binder | stoichiometry N [2] | further results
B1 |  | stoichiometry N [1]: 5
B2 | 2 | 
B3 | 5 | 
B4 |  | stoichiometry N [3]: 1 TonB per five ExbB
